Biological target: NFIA full-length (human, UniProt Q12857 1-509)
Assay: BLI

NFIA full-length, sequence (Q12857 whole entry): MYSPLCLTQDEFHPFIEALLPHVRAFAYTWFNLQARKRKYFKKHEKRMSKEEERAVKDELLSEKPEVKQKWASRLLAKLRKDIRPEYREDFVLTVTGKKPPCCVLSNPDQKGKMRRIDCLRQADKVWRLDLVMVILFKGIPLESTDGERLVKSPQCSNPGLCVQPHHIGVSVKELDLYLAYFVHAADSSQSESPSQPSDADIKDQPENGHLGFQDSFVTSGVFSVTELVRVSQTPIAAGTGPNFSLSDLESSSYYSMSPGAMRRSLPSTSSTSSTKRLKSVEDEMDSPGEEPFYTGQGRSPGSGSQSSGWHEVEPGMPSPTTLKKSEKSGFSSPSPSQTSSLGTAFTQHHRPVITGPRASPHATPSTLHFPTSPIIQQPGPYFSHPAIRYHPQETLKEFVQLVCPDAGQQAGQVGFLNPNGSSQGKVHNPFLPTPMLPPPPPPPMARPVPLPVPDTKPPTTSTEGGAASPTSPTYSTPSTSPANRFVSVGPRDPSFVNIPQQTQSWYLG

B1: DNA-S (dsDNA)
DNA 1: AGTTGGCAAGTC
DNA 2: GACTTGCCAACT
B1 was tested, and the Kd was 0.0204 µM.
